Measured values: paper PMC3208561, “Phylogenetic and Complementation Analysis of a Single-Stranded DNA Binding Protein Family from Lactococcal Phages Indicates a Non-Bacterial Origin”

Biological target: T1, Orf14bIL67 (phage SSB) (Lactococcus phage bIL67, UniProt Q38257 1-123)
T1 sequence: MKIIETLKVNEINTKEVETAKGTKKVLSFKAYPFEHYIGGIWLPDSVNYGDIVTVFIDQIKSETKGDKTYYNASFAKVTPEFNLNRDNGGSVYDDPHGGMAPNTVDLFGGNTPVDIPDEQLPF
Experiment: EMSA; 30°C; protein up to 100 nM, 0.5 nM DNA; 20 mM Tris-HCl pH 7.5, 25 mM KCl, 1 mM EDTA, 1 mM DTT, 2.5% glycerol, 0.3 mg/ml BSA; 10 min at 30 or 38°C; 5% native PAGE in 0.25x TBE at 4°C
Conditions: protein: recombinant; tags: IMPACT-CN (intein) purification; label: 5'-32P

B1: 80-mer oligonucleotide (ssDNA)
DNA: TTTGTCGGTACTTTATATTCTCTTATTACTGGCTCGAAAATGCCTCTGCCTAAATTACATGTTGGCGTTGTTAAATATGGGGG
B1: binds.
